Assay [1] has as its target SecA_(D337C/K482C), intramolecularly disulfide cross-linked (clamp closed) (E. coli) (UniProt P10408). The assay is described as follows: steady-state ATPase activity titration; 0.15 μM SecA, 1 mM ATP, TKM buffer pH 7.5, 0.03% C12E9, 25°C, increasing purified detergent-solubilized SecYEG, with or without 10 mM DTT; apparent affinity from a ligand-binding fit.
In assay [2] the target is SecA_(Δcys), SecA without cysteine residues (E. coli) (UniProt P10408). The assay is described as follows: steady-state ATPase activity titration; 80 nM SecA, 1 mM ATP, TKM buffer, increasing vesicles reconstituted with purified SecYEG, with 0.6 μM proOmpA_(Δcys), with or without 10 mM DTT.

As to “SecYEG complex (from UniProt P0AGA2 1-443; P0AG96 1-127; P0AG99 1-110)”, the fold increase in apparent affinity over the SecA (Δcys) control in assay [1] came out at 500 fold. Also, in assay [2], the fold increase in affinity in the presence of proOmpA stood at 5 fold.
